Patent publication US20190119358A1
*1 amine or outer side, *2 acyl side, *3 side chain or, on linkers, in order; H or OH if unused. Bridges are numbered along the chain shown (N, C = ends). Where no end group is shown, it is not given here. [ ]: non-standard residue; d: D form. UBX = ((2S,3R)-3-amino-2-hydroxy-4-phenylbutanoyl)-L-leucine, CC(C)C[C@H](NC(=O)[C@@H](O)[C@@H](Cc1ccccc1)N[*:1])C(=O)[*:2]; TDSPA = (R)-2-amino-3-(tert-butyldisulfanyl)propanoic acid, CC(C)(C)SSC[C@H](N[*:1])C(=O)[*:2]; m‑xylylene = m-xylylene thioether bridge between Cys; Trp(7-aza) = N[C@@H](Cc1c[nH]c2ncccc12)C(=O)O; NMePhe(4-F) = CN[C@@H](Cc1ccc(F)cc1)C(=O)O; mXylylene = c1cc(C[*:1])cc(C[*:2])c1; Glutaryl = O=C(CCCC(=O)[*:2])[*:1]; PEG4 = NCCOCCOCCOCCOCCC(=O)O; Phg = N[C@H](C(=O)O)c1ccccc1; Tle = CC(C)(C)[C@H](N)C(=O)O; NMeA = CN[C@@H](C)C(=O)O; Pra = C#CC[C@H](N)C(=O)O; Nva = CCC[C@H](N)C(=O)O; Ahp = NCCCCCCC(=O)O; Sar = CNCC(=O)O

B1: R4100 (peptide)
peptide: Ac-[Nva]C[Tle]YHT[Trp(7-aza)][Trp(7-aza)]E[Trp(7-aza)][Nva]HC-NH2
modifications: linker 2-13 via m‑xylylene
B2: R4101 (peptide)
peptide: Ac-[Nva]CY[Tle]KH[NMeA][Phg][Trp(7-aza)]Y[NMePhe(4-F)][NMeA]C-NH2
modifications: linker 2-13 via mXylylene
SMILES: CCC[C@H](NC(C)=O)C(=O)N[C@H]1CSCc2cccc(c2)CSC[C@@H](C(N)=O)NC(=O)[C@H](C)N(C)C(=O)[C@H](Cc2ccc(F)cc2)N(C)C(=O)[C@H](Cc2ccc(O)cc2)NC(=O)[C@H](Cc2c[nH]c3ncccc23)NC(=O)[C@H](c2ccccc2)NC(=O)[C@H](C)N(C)C(=O)[C@H](Cc2c[nH]cn2)NC(=O)[C@H](CCCCN)NC(=O)[C@H](C(C)(C)C)NC(=O)[C@H](Cc2ccc(O)cc2)NC1=O
B3: R4102 (peptide)
peptide: Ac-[Nva]CY[Tle]KH[NMeA][Phg][Trp(7-aza)]Y[NMePhe(4-F)][Sar]C[dS][dA]GCVIM
modifications: linker 2-13 via mXylylene
B4: R4103 (peptide)
peptide: Glutaryl-[Nva]CY[Tle]KH[NMeA][Phg][Trp(7-aza)]Y[NMePhe(4-F)][Sar]C-NH2
modifications: linker 2-13 via mXylylene
SMILES: CCC[C@H](NC(=O)CCCC(=O)O)C(=O)N[C@H]1CSCc2cccc(c2)CSC[C@@H](C(N)=O)NC(=O)CN(C)C(=O)[C@H](Cc2ccc(F)cc2)N(C)C(=O)[C@H](Cc2ccc(O)cc2)NC(=O)[C@H](Cc2c[nH]c3ncccc23)NC(=O)[C@H](c2ccccc2)NC(=O)[C@H](C)N(C)C(=O)[C@H](Cc2c[nH]cn2)NC(=O)[C@H](CCCCN)NC(=O)[C@H](C(C)(C)C)NC(=O)[C@H](Cc2ccc(O)cc2)NC1=O
B5: R4104 (peptide)
peptide: Ac-SCY[Tle]KH[NMeA][Phg][Trp(7-aza)]Y[NMePhe(4-F)][Sar]C-NH2
modifications: linker 2-13 via mXylylene
SMILES: CC(=O)N[C@@H](CO)C(=O)N[C@H]1CSCc2cccc(c2)CSC[C@@H](C(N)=O)NC(=O)CN(C)C(=O)[C@H](Cc2ccc(F)cc2)N(C)C(=O)[C@H](Cc2ccc(O)cc2)NC(=O)[C@H](Cc2c[nH]c3ncccc23)NC(=O)[C@H](c2ccccc2)NC(=O)[C@H](C)N(C)C(=O)[C@H](Cc2c[nH]cn2)NC(=O)[C@H](CCCCN)NC(=O)[C@H](C(C)(C)C)NC(=O)[C@H](Cc2ccc(O)cc2)NC1=O
B6: R4105 (peptide)
peptide: Ac-[Nva]CY[Tle]KH[NMeA][Phg][Trp(7-aza)]Y[NMePhe(4-F)][Sar]C[dS]KGCVIM
modifications: linker 2-13 via mXylylene
B7: R4002 (peptide)
peptide: [Nva]CY[Tle]KH[NMeA][Phg][Trp(7-aza)]Y[NMePhe(4-F)][Sar]C-NH2
modifications: linker 2-13 via mXylylene; N-terminus assumed
SMILES: CCC[C@H](N)C(=O)N[C@H]1CSCc2cccc(c2)CSC[C@@H](C(N)=O)NC(=O)CN(C)C(=O)[C@H](Cc2ccc(F)cc2)N(C)C(=O)[C@H](Cc2ccc(O)cc2)NC(=O)[C@H](Cc2c[nH]c3ncccc23)NC(=O)[C@H](c2ccccc2)NC(=O)[C@H](C)N(C)C(=O)[C@H](Cc2c[nH]cn2)NC(=O)[C@H](CCCCN)NC(=O)[C@H](C(C)(C)C)NC(=O)[C@H](Cc2ccc(O)cc2)NC1=O
B8: R4106 (peptide)
peptide: [UBX][Ahp][Nva]CY[Tle]KH[NMeA][Phg][Trp(7-aza)]Y[NMePhe(4-F)][Sar]C-NH2
modifications: linker 4-15 via mXylylene; N-terminus assumed
SMILES: CCC[C@H](NC(=O)CCCCCCNC(=O)[C@H](CC(C)C)NC(=O)[C@@H](O)[C@H](N)Cc1ccccc1)C(=O)N[C@H]1CSCc2cccc(c2)CSC[C@@H](C(N)=O)NC(=O)CN(C)C(=O)[C@H](Cc2ccc(F)cc2)N(C)C(=O)[C@H](Cc2ccc(O)cc2)NC(=O)[C@H](Cc2c[nH]c3ncccc23)NC(=O)[C@H](c2ccccc2)NC(=O)[C@H](C)N(C)C(=O)[C@H](Cc2c[nH]cn2)NC(=O)[C@H](CCCCN)NC(=O)[C@H](C(C)(C)C)NC(=O)[C@H](Cc2ccc(O)cc2)NC1=O
B9: R4107 (peptide)
peptide: Ac-[Nva]CY[Tle]KH[NMeA][Phg][Trp(7-aza)]Y[NMePhe(4-F)][Sar]C[PEG4][Pra]-NH2
modifications: linker 2-13 via mXylylene
SMILES: C#CC[C@H](NC(=O)CCOCCOCCOCCOCCNC(=O)[C@@H]1CSCc2cccc(c2)CSC[C@H](NC(=O)[C@H](CCC)NC(C)=O)C(=O)N[C@@H](Cc2ccc(O)cc2)C(=O)N[C@@H](C(C)(C)C)C(=O)N[C@@H](CCCCN)C(=O)N[C@@H](Cc2c[nH]cn2)C(=O)N(C)[C@@H](C)C(=O)N[C@@H](c2ccccc2)C(=O)N[C@@H](Cc2c[nH]c3ncccc23)C(=O)N[C@@H](Cc2ccc(O)cc2)C(=O)N(C)[C@@H](Cc2ccc(F)cc2)C(=O)N(C)CC(=O)N1)C(N)=O
B10: R4108 (peptide)
peptide: Ac-[Nva]CY[Tle]KH[NMeA][Phg][Trp(7-aza)]Y[NMePhe(4-F)][Sar]C
modifications: linker 2-13 via mXylylene
B11: R4109 (peptide)
peptide: Ac-[Nva]CY[Tle]KH[NMeA][Phg][Trp(7-aza)]Y[NMePhe(4-F)][Sar]C[dS]KG[TDSPA]VIM
modifications: linker 2-13 via mXylylene
B12: R4110 (peptide)
peptide: Ac-[Nva]CY[Tle]KH[NMeA][Phg][Trp(7-aza)]Y[NMePhe(4-F)][Sar]C[dS]KG[TDSPA]VVL
modifications: linker 2-13 via mXylylene
B13: R4111 (peptide)
peptide: Ac-[Nva]CY[Tle]KH[NMeA][Phg][Trp(7-aza)]Y[NMePhe(4-F)][Sar]C[dS][dA]K[TDSPA]VIM
modifications: linker 2-13 via mXylylene
B14: R4112 (peptide)
peptide: Ac-CY[Tle]KH[NMeA][Phg][Trp(7-aza)]Y[NMePhe(4-F)][Sar]C-NH2
modifications: linker 1-12 via mXylylene
SMILES: CC(=O)N[C@H]1CSCc2cccc(c2)CSC[C@@H](C(N)=O)NC(=O)CN(C)C(=O)[C@H](Cc2ccc(F)cc2)N(C)C(=O)[C@H](Cc2ccc(O)cc2)NC(=O)[C@H](Cc2c[nH]c3ncccc23)NC(=O)[C@H](c2ccccc2)NC(=O)[C@H](C)N(C)C(=O)[C@H](Cc2c[nH]cn2)NC(=O)[C@H](CCCCN)NC(=O)[C@H](C(C)(C)C)NC(=O)[C@H](Cc2ccc(O)cc2)NC1=O
B15: R4113 (peptide)
peptide: [Nva]CY[Tle]KH[NMeA][Phg][Trp(7-aza)]Y[NMePhe(4-F)][Sar]C[dS]KG[TDSPA]VIM
modifications: linker 2-13 via mXylylene
B16: R4114 (peptide)
peptide: [Nva]CY[Tle]KH[NMeA][Phg][Trp(7-aza)]Y[NMePhe(4-F)][Sar]C[dS]KGCVIM
modifications: linker 2-13 via mXylylene

The binders below were run against GMPPNP-loaded H-Ras or GTP-loaded K-Ras (assay: FP competition, displacement of probe R4007 from Ras).

B1 and B2 are within 1.5-fold of each other in IC50: 1.06 nM for the first, 1.45 nM for the second.

B3 and B4 are within 1.5-fold of each other in IC50: 1.82 nM for the first, 2 nM for the second.

B5 and B6 are within 1.5-fold of each other in IC50: 3.29 nM for the first, 3.31 nM for the second.

B7 and B8 are within 1.5-fold of each other in IC50: 7.92 nM for the first, 8.38 nM for the second.

B9 and B10 are within 1.5-fold of each other in IC50: 9.42 nM for the first, 9.45 nM for the second.

B11 and B12 are within 1.5-fold of each other in IC50: 14.2 nM for the first, 16.4 nM for the second.

B13 and B14 are within 1.5-fold of each other in IC50: 20.8 nM for the first, 21.4 nM for the second.

B15 and B16 are the same in IC50: 32.7 nM for the first, 32.7 nM for the second.
